We go through 72 sequences from the supplement of paper PMC10567573.

± gives the standard deviation.

The nature of this series: protein stability index of a GFP-peptide fusion (GPS, HEK-293T) (PSI 1-6); higher = more stable.
Setting [1] is: treatment: DMSO, c terminus: a fixed tail appended.
The mark [2] stands for this setting: treatment: MLN4924 1 uM, 8 h, c terminus: a fixed tail appended.
The mark [3] stands for this setting: treatment: DMSO, c terminus: native.
The mark [4] stands for this setting: treatment: MLN4924 1 uM, 8 h, c terminus: native.
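Also: 24-mer peptide tiles fused after GFP, lentivirally expressed, FACS-sorted into six equal bins by GFP/DsRed ratio, decoded by Illumina sequencing, PSI is the read-weighted mean bin number.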

In the case of GSALTFREEQCAAYNHRTDLFKSF [ADAMTS4], the protein stability index is, setting by setting: under setting [1], 2.97 ± 0.17; under setting [2], 2.88 ± 0.22.

Consider GSRPACQLQVPTLRQQCAQVLRNN [ELOA2], for which the protein stability index is, setting by setting: under setting [1], 4.43 ± 0.14; under setting [2], 4.51 ± 0.3.

In turn, GSSLSGSLCSLLESQSTSLRGSYN [LURAP1L] displayed a protein stability index under setting [1] of 3.07 ± 0.14 and a protein stability index under setting [2] of 2.87 ± 0.29.

GSTAITPGTPPSYSSRTPGTPGTP [MAP2] yielded a protein stability index under setting [1] of 4.87 ± 0.2 and a protein stability index under setting [2] of 4.98 ± 0.11.

For the sequence GTLIGVGQSVTAVGRIIAPLLSGV [MFSD9], the protein stability index worked out at 2.03 ± 0.17 under setting [1] and 2.2 ± 0.29 under setting [2].

Take GVPQIWEKIHEMVKKNSAKSMGLK [ACSBG2]: the protein stability index under setting [1] worked out at 2.09 ± 0.21 and the protein stability index under setting [2] was 2.53 ± 0.046.

Regarding GYGRDRDYSDHPSGGSYRDSYESY [RBMX], the protein stability index came to 3.91 ± 0.2 under setting [1] and 3.462 ± 0.032 under setting [2].

GYRDYGHSRRHESYSRGYSYHDGY [RBMY1A1]: the protein stability index by setting is: under setting [1], 2.64 ± 0.25; under setting [2], 2.61 ± 0.45.

For the sequence GYSMNFNMSSSRGPLPVKRGPPPR [RBMX], the protein stability index is, setting by setting: under setting [1], 3.16 ± 0.23; under setting [2], 3.82 ± 0.72.

As for HARLRLSADRLTVRCGLLGSLGPV [TRIM14], the protein stability index reads like this: under setting [1], 2.2 ± 0.65; under setting [2], 2.31 ± 0.3.

Turning to HCHIEESEHVLKKAHKYSELIILY [VPS39], the protein stability index reads like this: under setting [1], 2.21 ± 0.33; under setting [2], 2.12 ± 0.3.

Regarding HFFGDKALKKRSGKKDKHSQSPRA [PBXIP1], the protein stability index reads like this: under setting [1], 4.09 ± 0.36; under setting [2], 4.33 ± 0.45.

With HFSRLCGPESPPPPYSRLSPRDEY [SMAD6], the protein stability index is, setting by setting: under setting [1], 3.42 ± 0.07; under setting [2], 3.56 ± 0.17.

HGHMCIAFELLGKNTFEFLKENNF [CLK3]: the protein stability index by setting is: under setting [1], 2.55 ± 0.87; under setting [2], 2.92 ± 1.3.

HGLQEGKDLFTQRQNSAPARMLSS [CDC25A]: the protein stability index was determined as 4.4 ± 0.18 under setting [1] and 4.46 ± 0.15 under setting [2].

As for HHFFCDIAPVLKLASHHNHFSQIV [OR10K2], the protein stability index by setting is: under setting [1], 2.45 ± 0.45; under setting [2], 2.67 ± 0.55.

Take HHVADAYTSSQKVSPIQIDGAGRT [TOR1AIP2]: the protein stability index reads like this: under setting [1], 3.53 ± 0.21; under setting [2], 3.74 ± 0.46.

Consider HINSISVNSDYETYMSADDLRINL [PPP2R2B], for which the protein stability index was 3.15 ± 0.46 under setting [1] and 3.2 ± 0.54 under setting [2].

HKIKHKHILAKNYFSQVPVLASFI [IQUB] registered a protein stability index under setting [1] of 2.34 ± 0.37 and a protein stability index under setting [2] of 2.32 ± 0.55.

Turning to HLEEPGETQNAFLNERKQASAIKK [CHGB], the protein stability index reads like this: under setting [1], 5.11 ± 0.14; under setting [2], 5.2 ± 0.28.

With HQGIKPYKCSWCGKSFSQNTNLHT [ZNF75A], the protein stability index turned out to be 2.1 ± 0.002 under setting [1] and 2.52 ± 0.25 under setting [2].

HQTQLLYQASAMMVESRYALLIVD [RAD51]: the protein stability index under setting [1] worked out at 3.17 ± 0.74 and the protein stability index under setting [2] stood at 2.8 ± 0.66.

Turning to HSFVLVTSLGLTYDGMLSDVQSMP [MAGEA10], the protein stability index by setting is: under setting [1], 2.83 ± 0.53; under setting [2], 2.88 ± 0.47.

As to HSMHKYQPRIHLVRAAQLCSQHWG [TBX6], the protein stability index by setting is: under setting [1], 2.14 ± 0.2; under setting [2], 2.22 ± 0.3.

In the case of HSPSCLARVTGELTMTFPAGIVRV [FCHO1], the protein stability index is, setting by setting: under setting [1], 2.53 ± 0.44; under setting [2], 2.67 ± 0.76.

As for HSYCRMFLQRGADTNLGRLEDGQT [ASB7], the protein stability index reads like this: under setting [1], 2.73 ± 0.44; under setting [2], 2.85 ± 0.48.

Turning to HSYLSGYISLLLRAEPYPTSRFGS [NR2F2], the protein stability index reads like this: under setting [1], 3.06 ± 0.33; under setting [2], 2.85 ± 0.2.

For the sequence HTPGTPKSAILVPSEKKVAIIRTP [MAP2], the protein stability index by setting is: under setting [1], 3.96 ± 0.057; under setting [2], 4.02 ± 0.2.

Turning to HTTRSSLRGPRERAPSERSGPAAS [DVL3], the protein stability index came out at 5.15 ± 0.24 under setting [1] and 4.75 ± 0.31 under setting [2].

Regarding HWRECLFYPALWPQLRICLRVSPA [FBXO33], the protein stability index reads like this: under setting [1], 2.42 ± 1.1; under setting [2], 2.61 ± 0.78.

Regarding HYAVNSQFTMGGPAISMASPMSIP [CARM1], the protein stability index under setting [1] turned out to be 2.63 ± 0.21 and the protein stability index under setting [2] is 2.78 ± 0.24.

HYVAQTGILWLLMNNCFLNLSPRK [GAGE1]: the protein stability index reads like this: under setting [1], 2.72 ± 0.38; under setting [2], 3.584 ± 0.027.

Take HYYLMDDTVEIREVHERNDGIDPF [EFHC1]: the protein stability index is, setting by setting: under setting [1], 3.92 ± 0.18; under setting [2], 3.86 ± 0.32.

As to IAGDEGTQIPADEDTQTDADSSAQ [TAF7L], the protein stability index runs as follows: under setting [1], 5.58 ± 0.27; under setting [2], 5.45 ± 0.31.

In the case of IDDLEDDPVVNGERSGCALTDAVA [TCF25], the protein stability index is, setting by setting: under setting [1], 5.3 ± 0.19; under setting [2], 5.37 ± 0.11.

Turning to IEDEDQILENSSQKENVFKCDSLK [FAN1], the protein stability index reads like this: under setting [1], 5.07 ± 0.1; under setting [2], 5.01 ± 0.35.

With IEPRERAKFKRKYKVKLVEKRAFR [NOP53], the protein stability index by setting is: under setting [1], 2.87 ± 0.14; under setting [2], 3.15 ± 0.32.

As for IERSSSFSSITDSTMSLNIITVTL [DVL3], the protein stability index amounted to 2.8 ± 0.42 under setting [1] and 2.85 ± 0.23 under setting [2].

The sequence IETSALDSTNVEEAFKNILTEIYR [RAB11B] had a protein stability index under setting [1] of 2.41 ± 0.14 and a protein stability index under setting [2] of 2.79 ± 0.29.

Regarding IGLGHIYSGTFALIGAAAFLGGVV [CLCN6], the protein stability index is, setting by setting: under setting [1], 2.94 ± 0.19; under setting [2], 3.27 ± 0.7.

With IGRDPPAETQPQNPPAQPAPNAWQ [CLPTM1], the protein stability index is, setting by setting: under setting [1], 5.21 ± 0.31; under setting [2], 5.02 ± 0.25.

With IIKQIPVEQMTKEERQAAQNECQV [NEK8], the protein stability index is, setting by setting: under setting [1], 4.93 ± 0.19; under setting [2], 4.75 ± 0.24.

As to IKCFHEIITIGYNVYHSYDLPWFR [CDS2], the protein stability index under setting [1] was found to be 2.21 ± 0.12 and the protein stability index under setting [2] stood at 2.31 ± 0.33.

Take IKEAKEQHPDMSVTKVVVHKETEI [EPB41L3]: the protein stability index runs as follows: under setting [1], 5.23 ± 0.14; under setting [2], 5.02 ± 0.21.

As to IKMAMVACGDAFTVAIGAESEVYS [NEK8], the protein stability index amounted to 2.57 ± 0.78 under setting [1] and 2.57 ± 0.5 under setting [2].

As for ILDICEDNVPDPKDVKERFSGSLV [TMEM175], the protein stability index came to 3.83 ± 0.19 under setting [1] and 4.06 ± 0.13 under setting [2].

The sequence ILFLPCLRKKILKIRHGWEDVTKI [STEAP1] displayed a protein stability index under setting [1] of 2.95 ± 0.39 and a protein stability index under setting [2] of 2.46 ± 0.42.

The sequence ILIREAQNQPIDKARKTYERLVAQ [CSTF3] registered a protein stability index under setting [1] of 2.83 ± 0.2 and a protein stability index under setting [2] of 2.82 ± 0.11.

In the case of ILKHTPKEHPDVQLLEDAILIIQG [NET1], the protein stability index by setting is: under setting [1], 2.12 ± 0.27; under setting [2], 1.99 ± 0.35.

For ILTADLYSLFVGLFLFGYKFSGLY [SLC35F2], the protein stability index under setting [1] was 2.45 ± 0.49 and the protein stability index under setting [2] is 3.27 ± 0.19.

INEDLKTCSRVDYCLLSDHGCEYS [MATN2]: the protein stability index was 3.41 ± 0.21 under setting [1] and 3.35 ± 0.33 under setting [2].

As for INILQNEKSHQVLAQLLDTLLAIG [INTS4], the protein stability index stood at 2.43 ± 0.31 under setting [1] and 2.17 ± 0.2 under setting [2].

Consider IPGHGGIMDRFDCQYLMATFVNVY [CDS2], for which the protein stability index by setting is: under setting [1], 3 ± 0.46; under setting [2], 2.54 ± 0.51.

In the case of IPRENAQISLDGDVTFFGALKLL [TNFSF13B], the protein stability index amounted to 2.71 ± 0.24 under setting [3] and 2.73 ± 0.46 under setting [4].

For IPYNAKFLGSTEVEQPKGTEVVRD [GULP1], the protein stability index by setting is: under setting [1], 4.7 ± 0.44; under setting [2], 4.69 ± 0.23.

In the case of IQRIRSEIENVKKQASNLETAIAD [KRT71], the protein stability index is, setting by setting: under setting [1], 4.42 ± 0.29; under setting [2], 4.61 ± 0.31.

With IRQLQEQHYQQYMQQLYQVQLAQQ [ACBD3], the protein stability index amounted to 2.23 ± 0.29 under setting [1] and 2.43 ± 0.24 under setting [2].

Regarding IRTANCTTANQNCVNKSKLLTDV [KCNA1], the protein stability index reads like this: under setting [3], 3.19 ± 0.13; under setting [4], 3.35 ± 0.28.

With IRVPSVPPVPCVPSVPCTPAPQVG [KRT36], the protein stability index is, setting by setting: under setting [1], 3.45 ± 0.27; under setting [2], 3.57 ± 0.25.

Consider ISGLRFETQLKTLAQFPNTLLGNP [KCNA1], for which the protein stability index is 2.46 ± 0.23 under setting [1] and 2.41 ± 0.11 under setting [2].

For ITEALRPAGVGVVVEATHMCMVMR [GCH1], the protein stability index reads like this: under setting [1], 2.11 ± 0.38; under setting [2], 2.29 ± 0.33.

For the sequence ITESYQTLHPISSEELLSLKYEND [ETS1], the protein stability index is, setting by setting: under setting [1], 4.81 ± 0.095; under setting [2], 4.85 ± 0.22.

In the case of IVSHFQKLFDVPSLNGVYPRMNEV [CEP70], the protein stability index is, setting by setting: under setting [1], 2.46 ± 0.82; under setting [2], 2.56 ± 0.53.

Regarding IYQQLSRYRGLGLLASVPSNPNGN [CRY1], the protein stability index by setting is: under setting [1], 2.4 ± 0.28; under setting [2], 2.74 ± 0.29.

Regarding IYVHILKDTRMAEEYCHKHYDRNK [VPS39], the protein stability index turned out to be 2.19 ± 0.39 under setting [1] and 2 ± 0.28 under setting [2].

With KADTLKERYQKIGDTKRATPIEVL [CSNK1G3], the protein stability index runs as follows: under setting [1], 3.88 ± 0.18; under setting [2], 4.01 ± 0.32.

In the case of KAEILESVIKNYEDHFPLLFSEAS [MAGEA10], the protein stability index came out at 3.06 ± 0.38 under setting [1] and 3.19 ± 0.51 under setting [2].

In turn, KALGSDLDSSLASLVGNLGISGTT [SNAP91] registered a protein stability index under setting [1] of 3.94 ± 0.2 and a protein stability index under setting [2] of 3.93 ± 0.15.

Take KDHSCKDNIREAFQIYDKEASGYV [EFHC1]: the protein stability index by setting is: under setting [1], 3.72 ± 0.31; under setting [2], 3.81 ± 0.13.

Consider KDSYSSRDYPSSRDTRDYAPPPRD [RBMX], for which the protein stability index came to 4.08 ± 0.24 under setting [1] and 4.09 ± 0.6 under setting [2].

For the sequence KEDTLLLIAEVMGEDIPEKIKDEV [C8orf76], the protein stability index was found to be 4.35 ± 0.49 under setting [1] and 4.22 ± 0.38 under setting [2].

In the case of KEFILTDEEVQRKREMILKRKEEE [VDR], the protein stability index is, setting by setting: under setting [1], 5.33 ± 0.23; under setting [2], 5.38 ± 0.23.
